Data taken from the supplement of paper PMC10065799, “High-throughput profiling of sequence recognition by tyrosine kinases and SH2 domains using bacterial peptide display” (eLife, 2023).

Target: FGFR3 (UniProt P22607)
Assay: phosphorylation enrichment, bacterial display (enrichment ratio); higher = better substrate or ligand; peptides without Tyr show the background
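Also: 11-residue human phosphosite peptides and single-mutation variants displayed on the E. coli surface, counted by deep sequencing, each peptide's frequency after selection divided by its frequency in the unselected input library; frequency after pTyr selection over input frequency; kinase dosed for 20-30% of maximal phosphorylation in three min.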

Sequence of FGFR3 (P22607 whole entry, looked up): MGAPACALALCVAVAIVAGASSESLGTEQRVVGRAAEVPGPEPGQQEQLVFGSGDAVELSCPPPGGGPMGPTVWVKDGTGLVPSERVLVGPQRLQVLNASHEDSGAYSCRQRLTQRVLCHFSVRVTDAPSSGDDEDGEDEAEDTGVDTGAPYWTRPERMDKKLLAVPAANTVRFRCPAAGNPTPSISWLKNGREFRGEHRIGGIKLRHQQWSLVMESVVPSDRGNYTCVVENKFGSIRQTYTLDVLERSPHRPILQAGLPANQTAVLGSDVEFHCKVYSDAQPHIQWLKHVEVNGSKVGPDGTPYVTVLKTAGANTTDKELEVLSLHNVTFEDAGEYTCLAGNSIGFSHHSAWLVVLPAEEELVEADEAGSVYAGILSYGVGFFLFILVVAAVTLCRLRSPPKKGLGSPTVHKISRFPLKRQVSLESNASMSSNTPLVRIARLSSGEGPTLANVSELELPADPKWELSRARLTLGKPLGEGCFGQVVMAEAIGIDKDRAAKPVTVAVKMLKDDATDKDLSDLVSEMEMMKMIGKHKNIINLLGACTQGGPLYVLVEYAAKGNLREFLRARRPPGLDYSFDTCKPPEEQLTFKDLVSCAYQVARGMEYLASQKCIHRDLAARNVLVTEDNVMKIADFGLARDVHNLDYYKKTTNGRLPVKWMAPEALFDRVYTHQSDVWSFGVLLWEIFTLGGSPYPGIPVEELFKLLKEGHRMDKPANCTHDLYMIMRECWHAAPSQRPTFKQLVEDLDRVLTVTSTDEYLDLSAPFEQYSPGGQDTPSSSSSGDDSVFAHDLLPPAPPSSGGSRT

Sequence | phosphorylation enrichment
TYGVLYKARNK [CDK2_Y19_V18L] | 0.483
FADIAYNYRDG [PAH_Y166_H170D] | 0.622
RLLREYQELMN [KRT75_Y434] | 0.583
ETCLAYREKRI [TEKT1_Y118] | 0.558
RDMNACIRPSP [MMAA_Y207_Y207C] | 1.03
RVQQIYSDSDL [MIB1_Y376] | 0.852
SGVVPYEPPEV [TP53_Y220_V216G] | 0.781
LFSLGYHQSRW [GANAB_Y396] | 1.02
NQNIGYELGHR [KCNN3_Y268_K269E] | 0.403
IRQDDYESLKE [MTR_Y921_H920D] | 0.608
GVLKEYGEKVL [CPS1_Y529_V531E] | 0.466
MILSAYALGGL [CPS1_Y590_R587L] | 0.675
LAIELYVVVCK [RHO_Y136_R135L] | 1.64
YALAEYTEVKT [ALDH1A3_Y497] | 1.25
ADARMYGVLPR [PLP1_Y207_W212R] | 0.44
LEQRPYRRGSE [KCNJ12_Y427_E430G] | 0.511
CTTIHYNFVCN [TP53_Y234_M237V_YF] | 0.769

Sequence | phosphorylation enrichment
GGDVIYKGFED [NFU1_Y194] | 0.629
LRSRVYEVPVE [SLC26A3_Y756_N753S] | 0.833
KSELAYEIFDK [MYOM2_Y1024] | 0.782
CTTIHYNFMGN [TP53_Y234_C238G_YF] | 0.523
AVLVQYYMEHH [PTPN11_Y80_E76V] | 0.868
RNYGTYTAGLS [RHBDD1_Y264_D262G] | 0.533
MGGSLYFSYPD [HIKESHI_Y55_V54L] | 3.12
HAVFVYDICHV [TWNK_Y508_YF] | 1.05
LARNMYDKEYY [MET_Y1230_D1228N] | 0.569
LLANAYIFDVQ [L1CAM_Y418_V421D_YF] | 1.17
RLLRGHDQFAF [HLA-B_Y137_YF] | 0.472
IDFARYWHGND [MMP11_Y162_D166N] | 0.551
EVEFEYPFRLH [SYP_Y73] | 0.724
FRQNGYIPGSN [PCDHGA1_Y895_V894G_YF] | 0.437
DAVKHYMQFRK [CNGA2_Y395] | 0.427
YGPPQYNIQYS [ERBB2IP_Y977] | 0.557

Test system: Fer (mouse)
Assay: as above

Sequence | phosphorylation enrichment
TYGVLYKARNK [CDK2_Y19_V18L] | 0.438
FADIAYNYRDG [PAH_Y166_H170D] | 0.376
RLLREYQELMN [KRT75_Y434] | 0.465
ETCLAYREKRI [TEKT1_Y118] | 0.371
RDMNACIRPSP [MMAA_Y207_Y207C] | 0.571
RVQQIYSDSDL [MIB1_Y376] | 3.92
SGVVPYEPPEV [TP53_Y220_V216G] | 0.572
LFSLGYHQSRW [GANAB_Y396] | 0.584
NQNIGYELGHR [KCNN3_Y268_K269E] | 0.289
IRQDDYESLKE [MTR_Y921_H920D] | 0.463
GVLKEYGEKVL [CPS1_Y529_V531E] | 0.405
MILSAYALGGL [CPS1_Y590_R587L] | 0.552
LAIELYVVVCK [RHO_Y136_R135L] | 1.17
YALAEYTEVKT [ALDH1A3_Y497] | 1.31
ADARMYGVLPR [PLP1_Y207_W212R] | 0.385
LEQRPYRRGSE [KCNJ12_Y427_E430G] | 0.447
CTTIHYNFVCN [TP53_Y234_M237V_YF] | 0.694

Sequence | phosphorylation enrichment
GGDVIYKGFED [NFU1_Y194] | 0.395
LRSRVYEVPVE [SLC26A3_Y756_N753S] | 2.09
KSELAYEIFDK [MYOM2_Y1024] | 1
CTTIHYNFMGN [TP53_Y234_C238G_YF] | 0.472
AVLVQYYMEHH [PTPN11_Y80_E76V] | 0.516
RNYGTYTAGLS [RHBDD1_Y264_D262G] | 0.519
MGGSLYFSYPD [HIKESHI_Y55_V54L] | 0.802
HAVFVYDICHV [TWNK_Y508_YF] | 3.38
LARNMYDKEYY [MET_Y1230_D1228N] | 0.468
LLANAYIFDVQ [L1CAM_Y418_V421D_YF] | 0.755
RLLRGHDQFAF [HLA-B_Y137_YF] | 0.316
IDFARYWHGND [MMP11_Y162_D166N] | 0.423
EVEFEYPFRLH [SYP_Y73] | 0.489
FRQNGYIPGSN [PCDHGA1_Y895_V894G_YF] | 0.377
DAVKHYMQFRK [CNGA2_Y395] | 0.366
YGPPQYNIQYS [ERBB2IP_Y977] | 0.672

Target: Fes (UniProt P07332)
Sequence (P07332 whole entry, looked up): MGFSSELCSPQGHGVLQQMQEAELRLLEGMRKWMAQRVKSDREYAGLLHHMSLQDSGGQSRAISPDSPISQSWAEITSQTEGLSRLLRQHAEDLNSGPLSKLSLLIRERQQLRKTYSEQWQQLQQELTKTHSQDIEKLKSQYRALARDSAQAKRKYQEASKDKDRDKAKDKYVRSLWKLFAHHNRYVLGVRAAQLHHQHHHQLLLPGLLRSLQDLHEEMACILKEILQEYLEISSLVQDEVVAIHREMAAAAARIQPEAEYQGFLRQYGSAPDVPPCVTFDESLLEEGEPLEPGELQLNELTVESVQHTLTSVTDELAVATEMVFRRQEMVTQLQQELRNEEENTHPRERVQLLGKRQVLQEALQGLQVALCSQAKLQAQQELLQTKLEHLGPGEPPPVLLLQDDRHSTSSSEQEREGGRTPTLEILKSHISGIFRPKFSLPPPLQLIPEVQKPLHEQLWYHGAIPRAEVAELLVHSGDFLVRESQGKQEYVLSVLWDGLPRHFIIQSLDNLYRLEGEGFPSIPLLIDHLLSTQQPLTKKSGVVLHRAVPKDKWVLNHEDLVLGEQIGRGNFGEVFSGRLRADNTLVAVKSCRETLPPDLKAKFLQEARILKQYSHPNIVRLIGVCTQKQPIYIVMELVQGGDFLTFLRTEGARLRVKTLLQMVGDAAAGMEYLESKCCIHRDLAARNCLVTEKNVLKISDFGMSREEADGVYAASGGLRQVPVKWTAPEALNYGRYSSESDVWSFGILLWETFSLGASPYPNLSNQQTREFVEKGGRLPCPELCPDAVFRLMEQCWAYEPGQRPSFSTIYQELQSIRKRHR
Assay: as above

Sequence | phosphorylation enrichment
TYGVLYKARNK [CDK2_Y19_V18L] | 0.691
FADIAYNYRDG [PAH_Y166_H170D] | 0.836
RLLREYQELMN [KRT75_Y434] | 0.817
ETCLAYREKRI [TEKT1_Y118] | 0.956
RDMNACIRPSP [MMAA_Y207_Y207C] | 1.29
RVQQIYSDSDL [MIB1_Y376] | 1.32
SGVVPYEPPEV [TP53_Y220_V216G] | 1.21
LFSLGYHQSRW [GANAB_Y396] | 1.16
NQNIGYELGHR [KCNN3_Y268_K269E] | 0.486
IRQDDYESLKE [MTR_Y921_H920D] | 1.15
GVLKEYGEKVL [CPS1_Y529_V531E] | 0.719
MILSAYALGGL [CPS1_Y590_R587L] | 1
LAIELYVVVCK [RHO_Y136_R135L] | 3.23
YALAEYTEVKT [ALDH1A3_Y497] | 0.901
ADARMYGVLPR [PLP1_Y207_W212R] | 0.467
LEQRPYRRGSE [KCNJ12_Y427_E430G] | 0.683
CTTIHYNFVCN [TP53_Y234_M237V_YF] | 1.11

Sequence | phosphorylation enrichment
GGDVIYKGFED [NFU1_Y194] | 0.887
LRSRVYEVPVE [SLC26A3_Y756_N753S] | 0.91
KSELAYEIFDK [MYOM2_Y1024] | 1.21
CTTIHYNFMGN [TP53_Y234_C238G_YF] | 0.876
AVLVQYYMEHH [PTPN11_Y80_E76V] | 1.21
RNYGTYTAGLS [RHBDD1_Y264_D262G] | 0.748
MGGSLYFSYPD [HIKESHI_Y55_V54L] | 1.26
HAVFVYDICHV [TWNK_Y508_YF] | 2.02
LARNMYDKEYY [MET_Y1230_D1228N] | 0.872
LLANAYIFDVQ [L1CAM_Y418_V421D_YF] | 1.84
RLLRGHDQFAF [HLA-B_Y137_YF] | 0.554
IDFARYWHGND [MMP11_Y162_D166N] | 0.835
EVEFEYPFRLH [SYP_Y73] | 1.37
FRQNGYIPGSN [PCDHGA1_Y895_V894G_YF] | 0.548
DAVKHYMQFRK [CNGA2_Y395] | 0.558
YGPPQYNIQYS [ERBB2IP_Y977] | 0.802

Target: Fyn (UniProt P06241)
Sequence (P06241 whole entry, looked up): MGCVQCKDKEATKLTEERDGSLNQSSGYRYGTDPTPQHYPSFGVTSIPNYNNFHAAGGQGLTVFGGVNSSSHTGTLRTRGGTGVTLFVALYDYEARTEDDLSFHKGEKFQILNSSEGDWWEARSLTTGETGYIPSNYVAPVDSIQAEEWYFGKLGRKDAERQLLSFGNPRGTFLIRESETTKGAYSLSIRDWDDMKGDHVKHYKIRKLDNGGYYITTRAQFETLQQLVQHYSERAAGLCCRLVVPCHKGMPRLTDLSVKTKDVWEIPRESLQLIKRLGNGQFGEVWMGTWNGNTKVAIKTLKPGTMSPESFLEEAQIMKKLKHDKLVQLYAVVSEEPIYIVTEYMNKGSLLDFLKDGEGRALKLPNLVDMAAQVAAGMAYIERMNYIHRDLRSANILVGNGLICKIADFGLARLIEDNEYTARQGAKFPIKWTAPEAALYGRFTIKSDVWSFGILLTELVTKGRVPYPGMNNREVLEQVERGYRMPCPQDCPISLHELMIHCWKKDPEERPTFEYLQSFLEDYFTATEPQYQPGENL
Assay: as above

Sequence | phosphorylation enrichment
TYGVLYKARNK [CDK2_Y19_V18L] | 2.88
FADIAYNYRDG [PAH_Y166_H170D] | 0.371
RLLREYQELMN [KRT75_Y434] | 0.746
ETCLAYREKRI [TEKT1_Y118] | 0.536
RDMNACIRPSP [MMAA_Y207_Y207C] | 0.773
RVQQIYSDSDL [MIB1_Y376] | 4.75
SGVVPYEPPEV [TP53_Y220_V216G] | 0.667
LFSLGYHQSRW [GANAB_Y396] | 0.726
NQNIGYELGHR [KCNN3_Y268_K269E] | 0.528
IRQDDYESLKE [MTR_Y921_H920D] | 0.455
GVLKEYGEKVL [CPS1_Y529_V531E] | 0.425
MILSAYALGGL [CPS1_Y590_R587L] | 0.458
LAIELYVVVCK [RHO_Y136_R135L] | 1.14
YALAEYTEVKT [ALDH1A3_Y497] | 0.572
ADARMYGVLPR [PLP1_Y207_W212R] | 0.536
LEQRPYRRGSE [KCNJ12_Y427_E430G] | 0.424
CTTIHYNFVCN [TP53_Y234_M237V_YF] | 0.539

Sequence | phosphorylation enrichment
GGDVIYKGFED [NFU1_Y194] | 3.25
LRSRVYEVPVE [SLC26A3_Y756_N753S] | 0.962
KSELAYEIFDK [MYOM2_Y1024] | 1.94
CTTIHYNFMGN [TP53_Y234_C238G_YF] | 0.464
AVLVQYYMEHH [PTPN11_Y80_E76V] | 0.673
RNYGTYTAGLS [RHBDD1_Y264_D262G] | 2.18
MGGSLYFSYPD [HIKESHI_Y55_V54L] | 3.46
HAVFVYDICHV [TWNK_Y508_YF] | 4.27
LARNMYDKEYY [MET_Y1230_D1228N] | 0.441
LLANAYIFDVQ [L1CAM_Y418_V421D_YF] | 1.09
RLLRGHDQFAF [HLA-B_Y137_YF] | 0.289
IDFARYWHGND [MMP11_Y162_D166N] | 0.431
EVEFEYPFRLH [SYP_Y73] | 0.336
FRQNGYIPGSN [PCDHGA1_Y895_V894G_YF] | 0.403
DAVKHYMQFRK [CNGA2_Y395] | 0.591
YGPPQYNIQYS [ERBB2IP_Y977] | 0.549
